This note sets out measurements from paper PMC5095531.

This test addresses T1, native human lipocalin 2 (LCN2) (human), P80188.
T1 chain: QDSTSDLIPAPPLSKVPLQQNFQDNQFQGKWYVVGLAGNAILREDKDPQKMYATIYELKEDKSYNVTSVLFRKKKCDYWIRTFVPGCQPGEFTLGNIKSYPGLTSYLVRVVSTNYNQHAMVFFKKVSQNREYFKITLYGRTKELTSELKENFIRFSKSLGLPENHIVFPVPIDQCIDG
In words: non-reducing SDS-PAGE with immunoblot; purified proteins in vitro, non-reducing conditions, anti-human LCN2 antibodies; monomer about 20 kDa, dimer about 40 kDa. Particulars: remark: other sources report otherwise. A general note: A western blot detects proteins with antibodies after separation by electrophoresis.

B1: native human lipocalin 2 (LCN2), P80188-1 21-198 (natural protein)
chain: T1 chain
The stoichiometry N is a count of units in the complex or per binding partner. As for B1, the stoichiometry N is 2.
